{
  "source": "patent US20230372552A1",
  "about": "“CONJUGATE OR ITS SALT COMPRISING A GASTRIN-RELEASING PEPTIDE RECEPTOR ANTAGONIST AND USES THEREOF” (ORANO MED, priority 2020, published 2023)",
  "key": {"[1]": {"assay": "Comparative biodistribution, ACMP linker, tumor-free immunocompetent mice", "type": "in vivo, immunocompetent CD1 female mice", "conditions": "4 hours post-dose injection", "experimental": "The study was aimed at assessing the biodistribution […] conjugate of the invention in that it comprises a linker constituted by a 4-amino-(1-carboxymethyl)piperidinyl group, of formula: […]\n5 immunocompetent CD1 female mice, 7-8 weeks old, were injected intravenously with one ^212Pb-ACMP-conjugate dose.\nThe mice were sacrificed at 4 hour post-dose injection.\n(§1) The tubes were counted for two min. Standards consisting of 5 μL of the solutions injected to the mice were also counted. The background was automatically subtracted from the counts. The standards were also used for decay correction."}, "[2]": {"system": "subcutaneous PC-3 tumors", "assay": "^212Pb-conjugate biodistribution study in xenograft-bearing mice (10 μCi per 14 ng)", "type": "in vivo, athymic nude mice", "experimental": "15 male athymic nude mice, 7-8 weeks old and weighting 27.74±1.87 g at study initiation, were injected subcutaneously, into the right flank, with 10^6 PC-3 human prostate cancer cells in 100 μL of RPMI-1640 medium/Matrigel™ (v/v: 1/1). […] Then each mouse received intravenously (into a tail vein) one ^212Pb-conjugate dose. […] The tubes were counted for two min. […] The background was automatically subtracted from the counts. The standard was also used for decay correction."}, "[3]": {"system": "subcutaneous PC-3 tumors", "assay": "Comparative biodistribution, change of chelator (DOTAM vs DOTA), xenograft-bearing mice", "type": "in vivo, athymic nude mice", "conditions": "over the first 24 hours", "excerpt": "The instant study was aimed at comparing the biodistribution of the conjugate of the invention, labelled with ^212Pb, in athymic nude mice bearing a human prostate cancer cell tumor with that of a conjugate also labelled with ^212Pb and only differing from the conjugate of the invention in that the chelator corresponds to DOTA (1,4,7,10-tetraazacyclododecane-1,4,7,10-tetraacetic acid) and is of formula:\n30 male athymic nude mice, 7-8 weeks old and weighting 27.90±1.9 g at study initiation, were injected subcutaneously, into the right flank, with 10^6 PC-3 human prostate cancer cells in 100 μL of RPMI-1640 medium/Matrigel™ (v/v: 1/1). The tumors were let grow until they reached 200-300 mm^3.\nEach mouse of groups A, B and C received intravenously one ^212Pb-DOTAM-conjugate dose whilst each mouse of groups […] received intravenously one ^212Pb-DOTA-conjugate dose.\nas §1"}, "[4]": {"assay": "^203Pb-conjugate biodistribution study in tumor-free immunocompetent mice", "quoted_text": "After that, the mice were divided in 6 groups of 10, denoted as groups A, B, C, D, E and F respectively, each comprising 5 male and 5 female.\nThe mice of group A were sacrificed at 5 min post-dose injection; the mice of group B were sacrificed at 30 min post-dose injection; the mice of group C were sacrificed at 1 hour post-dose injection; the mice of group D were sacrificed at 4 hours post-dose injection whereas the mice of group E were sacrificed at 24 hours post-dose injection.\nThe mice of group F were placed in metabolic cages and their urinary and fecal excretions were collected at 4 hours, 24 hours and 48 hours post-dose injection; they were sacrificed at 48 hours post-dose injection. […]\nThe tubes were counted for two min. A standard consisting of 5 μL of the solution injected to the mice was also counted for each group of mice. […]\nThe excretions of the mice of group F were also counted.\nThe percent injected dose per gram, noted as % ID/g, was calculated for each organ collected (mean±standard deviation) whilst the percent injected dose, noted as % ID, was calculated for the excretions of the mice of group F (mean±standard deviation)."}},
  "data": [
    {"smiles": "CC(C)C[C@H](NC(=O)C[C@H](O)[C@H](CC(C)C)NC(=O)[C@H](Cc1c[nH]cn1)NC(=O)CNC(=O)[C@@H](NC(=O)[C@H](C)NC(=O)[C@H](Cc1c[nH]c2ccccc12)NC(=O)[C@H](CCC(N)=O)NC(=O)[C@@H](Cc1ccccc1)NC(=O)CN1CCC(NC(=O)CN2CCN(CC(N)=O)CCN(CC(N)=O)CCN(CC(N)=O)CC2)CC1)C(C)C)C(N)=O", "note": "[^212Pb-ACMP-conjugate, metal not drawn]", "values": [
      {"measurement": "safety profile relative to the -β-Ala-β-Ala- linker conjugate", "setting": "[1]", "value": "significantly lower safety profile"},
      {"measurement": "uptake in kidneys relative to the -β-Ala-β-Ala- linker conjugate", "setting": "[1]; 10 μCi per 4.1 ng", "value": 5, "unit": "times"}
    ]},
    {"smiles": "CC(C)C[C@H](NC(=O)C[C@H](O)[C@H](CC(C)C)NC(=O)[C@H](Cc1c[nH]cn1)NC(=O)CNC(=O)[C@@H](NC(=O)[C@H](C)NC(=O)[C@H](Cc1c[nH]c2ccccc12)NC(=O)[C@H](CCC(N)=O)NC(=O)[C@@H](Cc1ccccc1)NC(=O)CCNC(=O)CCNC(=O)CN1CCN(CC(N)=O)CCN(CC(N)=O)CCN(CC(N)=O)CC1)C(C)C)C(N)=O", "note": "[^212Pb-conjugate, metal not drawn]", "values": [
      {"measurement": "tumor/blood ratio", "setting": "[2]; i.v., 10 μCi per 14 ng", "value": "high"},
      {"measurement": "clearance", "setting": "[2]; mouse, in vivo, iv", "value": "fast clearance"},
      {"measurement": "tumor retention versus ^212Pb-DOTA-conjugate", "setting": "[3]", "value": "higher"}
    ]},
    {"smiles": "CC(C)C[C@H](NC(=O)C[C@H](O)[C@H](CC(C)C)NC(=O)[C@H](Cc1c[nH]cn1)NC(=O)CNC(=O)[C@@H](NC(=O)[C@H](C)NC(=O)[C@H](Cc1c[nH]c2ccccc12)NC(=O)[C@H](CCC(N)=O)NC(=O)[C@@H](Cc1ccccc1)NC(=O)CCNC(=O)CCNC(=O)CN1CCN(CC(N)=O)CCN(CC(N)=O)CCN(CC(N)=O)CC1)C(C)C)C(N)=O", "note": "[^203Pb-conjugate, metal not drawn]", "values": [
      {"measurement": "route of elimination (urinary, fecal excretion)", "setting": "[4]; excretions collected at 4, 24 and 48 hours post-dose", "value": "mainly eliminated by renal excretion"},
      {"measurement": "biodistribution profile", "setting": "[4]; male and female mice, 5 min to 48 hours, 10 μCi per 28 ng", "value": "safe biodistribution profile"}
    ]}
  ]
}
